# B1: TamB_(963-1138) (domain or fragment, E. coli K12, UniProt P39321 963-1138, looked up)
# chain: MDVSPDVVFEATPNLFTLDGRVDVPWARIVVHDLPESAVGVSSDVVMLNDNLQPEEPKTASIPINSNLIVHVGNNVRIDAFGLKARLTGDLNVVQDKQGLGLNGQINIPEGRFHAYGQDLIVRKGELLFSGPPDQPYLNIEAIRNPDATEDDVIAGVRVTGLADEPKAEIFSDPAM
# notes: whole TamB has 1,259 amino acids; Cloned into pET-21a via NdeI and XhoI; A selenomethionine-labelled form was used for phasing only; Construct as described by Josts et al., 2014
# Biological target: the molecule itself
# Experiment: SEC-MALS; 100 μl samples at 1-5 mg/ml on Superdex 200 10/300 GL in 20 mM Tris, 200 mM NaCl, 0.05 % LDAO pH 7.9, 0.6 ml/min
protein,measurement,value
B1,stoichiometry N,2
